B1: B8-IgG1 (antibody, V domains shown)
VH: EVQLVQSGAEVKKPGSSVKVSCKASGGTFSNYGISWVRQAPGQGLEWMGRILPTFGTANSAQKFQGRVTITADESTGTAYMELRSLRSEDTAVYYCAKEGLAFLGYGMDVWGQGTTVTVSS
VL: EIVLTQSPGTLSLSPGERATLSCRASQSVSSYLAWYQQKPGQAPRLLIYDASNRATGIPARFIGSGSGTDFTLTISSLEPEDFAVYFCQQRSNWPLTFGGGTKVEIK
B2: B8-mIgA2 (antibody, V domains shown)
VH: B1 VH
VL: B1 VL
B3: B8-mIgA1 (antibody, V domains shown)
VH: B1 VH
VL: B1 VL
B4: B8-dIgA2 (antibody, V domains shown)
VH: B1 VH
VL: B1 VL
B5: B8-dIgA1 (antibody, V domains shown)
VH: B1 VH
VL: B1 VL

target: recombinant RBD derived from SARS-CoV-2 (Sino Biological) (SARS-CoV-2, ancestral (Wuhan-Hu-1) …, UniProt P0DTC2); experiment: ELISA

Binder	binding result
B1	binds
B2	binds
B3	binds
B4	binds
B5	binds

— publication doi:10.1101/2021.10.05.463282 (2021)
